Earlier results on one substance are cited in PMC4485156.

The target in this series is haptoglobin-hemoglobin complex (Homo sapiens) (UniProt P00738).
Sequence of UniProt P00738 (P00738 19-406, chain 1 of 3): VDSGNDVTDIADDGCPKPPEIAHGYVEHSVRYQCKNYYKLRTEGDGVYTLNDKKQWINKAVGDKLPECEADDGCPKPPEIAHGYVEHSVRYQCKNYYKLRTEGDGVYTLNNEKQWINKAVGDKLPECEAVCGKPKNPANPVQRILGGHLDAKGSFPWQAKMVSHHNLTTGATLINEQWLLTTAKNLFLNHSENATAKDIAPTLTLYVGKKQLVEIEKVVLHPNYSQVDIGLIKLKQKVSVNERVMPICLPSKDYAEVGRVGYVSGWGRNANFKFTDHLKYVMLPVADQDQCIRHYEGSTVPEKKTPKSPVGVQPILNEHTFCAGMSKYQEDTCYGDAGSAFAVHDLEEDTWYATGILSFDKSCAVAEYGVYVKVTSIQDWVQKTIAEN
Sequence of UniProt P00738 (P69905 2-142, chain 2 of 3, further chain): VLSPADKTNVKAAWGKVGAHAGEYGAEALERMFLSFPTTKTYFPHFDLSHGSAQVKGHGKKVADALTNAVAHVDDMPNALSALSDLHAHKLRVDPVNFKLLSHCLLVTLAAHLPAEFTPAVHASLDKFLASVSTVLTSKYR
Sequence of UniProt P00738 (P68871 2-147, chain 3 of 3, further chain): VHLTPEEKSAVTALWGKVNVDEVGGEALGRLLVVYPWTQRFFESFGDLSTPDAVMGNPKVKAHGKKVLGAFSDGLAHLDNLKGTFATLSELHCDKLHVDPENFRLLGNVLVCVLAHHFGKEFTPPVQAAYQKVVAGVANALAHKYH

On to CD163 (from UniProt Q86VB7), for which the Kd was 19 nM.

Broadly, the Kd is the concentration at which binding is half-saturated.
